Tests used:
[1] = biological target: T1, Human CD3ε stalk-Fc(knob)-Avi/CD3δ stalk-Fc(hole) (human); assay: SPR (Biacore T200, 25°C), TCB format, monovalent binding
T1 construct: Heterodimer of CD3 delta and CD3 epsilon ectodomains fused to a human Fc domain with knob-into-hole modifications and C-terminal Avi-tag; also called human CD3ε/δ; CD3ε/δ
Excerpt: (§1) For affinity measurements, TCB molecules were captured on a C1 sensorchip (GE Healthcare) surface with immobilized anti-Fc (P329G) IgG (an antibody that specifically binds human IgG₁ Fc (P329G); “anti-PG antibody”—see WO 2017/072210, incorporated herein by reference). The experimental setup is schematically depicted in FIG. 3. Capture IgG was coupled to the sensorchip surface by direct immobilization of around 400 resonance units (RU) using the standard amine coupling kit (GE Healthcare Life Sciences).
(§2) To analyze the interaction to CD3, TCB molecules were captured for 80 s at 25 nM with a flow rate of 10 μl/min. Human and cynomolgus CD3ε stalk-Fc(knob)-Avi/CD3δ stalk-Fc(hole) (CD3ε/δ, see SEQ ID NOs 24 and 25 (human) and SEQ ID NOs 26 and 27 (cynomolgus)) were passed at a concentration of 0.122-125 nM with a flow rate of 30 μl/min through the flow cells for 300 s. The dissociation was monitored for 800 s.
(§3) Kinetic constants were derived using the Biacore T200 Evaluation Software (GE Healthcare Life Sciences), to fit rate equations for 1:1 Langmuir binding by numerical integration. The half-life (t_{1/2}) of the interaction was calculated using the formula t_{1/2}=ln 2/koff.

[2] = biological target: T2, Cynomolgus CD3ε stalk-Fc(knob)-Avi/CD3δ stalk-Fc(hole) (cynomolgus); assay: SPR (Biacore T200, 25°C); TCB captured by anti-PG antibody on C1 chip, CD3ε/δ-Fc as analyte; t1/2 = ln 2/koff
T2 construct: Heterodimeric Fc fusion, soluble analyte in SPR; also called cynomolgus CD3ε/δ
Excerpt: as §1, §2, §3

[3] = biological target: T1, Human CD3ε stalk-Fc(knob)-Avi/CD3δ …; assay: as above
Excerpt: as §1, §2, §3

[4] = biological target: T2, Cynomolgus CD3ε stalk-Fc(knob)-Avi/CD3δ …; assay: SPR (Biacore T200, 25°C); TCB captured by anti-PG antibody on C1 chip, CD3ε/δ-Fc as analyte; 1:1 Langmuir fit
Excerpt: as §1, §2, §3

[5] = biological target: T1, Human CD3ε stalk-Fc(knob)-Avi/CD3δ …; assay: as above
Excerpt: as §1, §2, §3

[6] = biological target: T1, Human CD3ε stalk-Fc(knob)-Avi/CD3δ …; assay: SPR (Biacore T200); biotinylated human CD3ε/δ on SA chip, TCB injected at 2 µg/ml; normalised to anti-huIgG capture, relative to the non-stressed sample
Procedure: In order to assess the effect of the deamidation site removal and its effect on the stability of the antibodies, the anti-CD3 antibodies (in TCB format) were incubated for 14 days at 37° C., pH 7.4 and at 40° C., pH 6 and further analyzed by SPR for their binding capability to human CD3ε/δ. Samples stored at −80° C. pH 6 were used as reference. The reference samples and the samples stressed at 40° C. were in 20 mM His, 140 mM NaCl, pH 6.0, and the samples stressed at 37° C. in PBS, pH 7.4, all at a concentration of 1.0 mg/ml. After the stress period (14 days) samples in PBS were dialyzed back to 20 mM His, 140 mM NaCl, pH 6.0 for further analysis.
All SPR experiments were performed on a Biacore T200 instrument (GE Healthcare) at 25° C. with HBS-P+(10 mM HEPES, 150 mM NaCl pH 7.4, 0.05% Surfactant P20) as running and dilution buffer. Biotinylated human CD3ε/δ (see Example 3, SEQ ID NOs 24 and 25) as well as biotinylated anti-huIgG (Capture Select, Thermo Scientific, #7103262100) were immobilized on a Series S Sensor Chip SA (GE Healthcare, #29104992), resulting in surface densities of at least 1000 resonance units (RU). Anti-CD3 antibodies with a concentration of 2 μg/ml were injected for 30 s at a flow rate of 5 μl/min, and dissociation was monitored for 120 s. The surface was regenerated by injecting 10 mM glycine pH 1.5 for 60 s. Bulk refractive index differences were corrected by subtracting blank injections and by subtracting the response obtained from a blank control flow cell. For evaluation, the binding response 5 seconds after injection end was taken. To normalize the binding signal, the CD3 binding was divided by the anti-huIgG response (the signal (RU) obtained upon capture of the CD3 antibody on the immobilized anti-huIgG antibody). The relative binding activity was calculated by referencing each temperature stressed sample to the corresponding, non-stressed sample.

[7] = biological target: T1, Human CD3ε stalk-Fc(knob)-Avi/CD3δ …; assay: SPR (Biacore T200, 25°C), TCB format, same conditions
Excerpt: as §1, §2, §3

fold higher binding half-life than CD3orig and CD3opt [1] | t1/2 [2] | t1/2 [3] | Kd [4] | koff [4] | kon [4] | Kd [5] | koff [5] | kon [5] | binding activity [%], 2 weeks at pH 6.0/40°C [6] | binding activity [%], 2 weeks at pH 7.4/37°C [6] | fold increase of affinity compared to CD3orig and CD3opt [7] | Binder
≤ 4 fold | 11.1 min | 7.55 min | 210 pM | 0.00104 s⁻¹ | 4.89e+06 M⁻¹ s⁻¹ | 410 pM | 0.00153 s⁻¹ | 3.75e+06 M⁻¹ s⁻¹ | 97% | 95% | ≤ 10 fold | TYRP1 T-cell bispecific antibody (TCB) comprising anti-CD3 antibody P035.093 (bispecific antibody, human IgG1, kappa, L234A L235A, 2+1 IgG CrossFab, inverted, with charge modifications; human IgG1 Fc with knob-into-hole and P329G LALA; also called P035.093 (in TCB format); TYRP1 TCB P035.093) heavy 1: not shown heavy 2: QVQLVQSGAEVKKPGASVKVSCKASGFNIKDYFLHWVRQAPGQGLEWMGWINPDNGNTVYAQKFQGRVTMTADTSTSTVYMELSSLRSEDTAVYYCTRRDYTYEKAALDYWGQGTLVTVSSASTKGPSVFPLAPSSKSTSGGTAALGCLVEDYFPEPVTVSWNSGALTSGVHTFPAVLQSSGLYSLSSVVTVPSSSLGTQTYICNVNHKPSNTKVDEKVEPKSCDKTHTCPPCPAPEAAGGPSVFLFPPKPKDTLMISRTPEVTCVVVDVSHEDPEVKFNWYVDGVEVHNAKTKPREEQYNSTYRVVSVLTVLHQDWLNGKEYKCKVSNKALGAPIEKTISKAKGQPREPQVCTLPPSRDELTKNQVSLSCAVKGFYPSDIAVEWESNGQPENNYKTTPPVLDSDGSFFLVSKLTVDKSRWQQGNVFSCSVMHEALHNHYTQKSLSLSP light 1: DIQMTQSPSSLSASVGDRVTITCRASGNIYNYLAWYQQKPGKVPKLLIYDAKTLADGVPSRFSGSGSGTDFTLTISSLQPEDVATYYCQHFWSLPFTFGQGTKLEIKRTVAAPSVFIFPPSDRKLKSGTASVVCLLNNFYPREAKVQWKVDNALQSGNSQESVTEQDSKDSTYSLSSTLTLSKADYEKHKVYACEVTHQGLSSPVTKSFNRGEC light 2: EVQLLESGGGLVQPGGSLRLSCAASGFTFSSYAMNWVRQAPGKGLEWVSRIRSKYNNYATYYADSVKGRFTISRDDSKNTLYLQMNSLRAEDTAVYYCVRASNFPASYVSYFAYWGQGTLVTVSSASVAAPSVFIFPPSDEQLKSGTASVVCLLNNFYPREAKVQWKVDNALQSGNSQESVTEQDSKDSTYSLSSTLTLSKADYEKHKVYACEVTHQGLSSPVTKSFNRGEC
– | 5.02 min | 1.86 min | 860 pM | 0.0023 s⁻¹ | 2.67e+06 M⁻¹ s⁻¹ | 4300 pM | 0.00621 s⁻¹ | 1.44e+06 M⁻¹ s⁻¹ | 97% | 92% | – | TYRP1 T-cell bispecific antibody (TCB) comprising anti-CD3 antibody CD3opt (bispecific antibody, human IgG1, kappa, L234A L235A, 2+1 IgG CrossFab, inverted, with charge modifications; human IgG1 Fc with knob-into-hole and P329G LALA; also called CD3opt (in TCB format)) heavy 1: not shown heavy 2: QVQLVQSGAEVKKPGASVKVSCKASGFNIKDYFLHWVRQAPGQGLEWMGWINPDNGNTVYAQKFQGRVTMTADTSTSTVYMELSSLRSEDTAVYYCTRRDYTYEKAALDYWGQGTLVTVSSASTKGPSVFPLAPSSKSTSGGTAALGCLVEDYFPEPVTVSWNSGALTSGVHTFPAVLQSSGLYSLSSVVTVPSSSLGTQTYICNVNHKPSNTKVDEKVEPKSCDKTHTCPPCPAPEAAGGPSVFLFPPKPKDTLMISRTPEVTCVVVDVSHEDPEVKFNWYVDGVEVHNAKTKPREEQYNSTYRVVSVLTVLHQDWLNGKEYKCKVSNKALGAPIEKTISKAKGQPREPQVCTLPPSRDELTKNQVSLSCAVKGFYPSDIAVEWESNGQPENNYKTTPPVLDSDGSFFLVSKLTVDKSRWQQGNVFSCSVMHEALHNHYTQKSLSLSP light 1: DIQMTQSPSSLSASVGDRVTITCRASGNIYNYLAWYQQKPGKVPKLLIYDAKTLADGVPSRFSGSGSGTDFTLTISSLQPEDVATYYCQHFWSLPFTFGQGTKLEIKRTVAAPSVFIFPPSDRKLKSGTASVVCLLNNFYPREAKVQWKVDNALQSGNSQESVTEQDSKDSTYSLSSTLTLSKADYEKHKVYACEVTHQGLSSPVTKSFNRGEC light 2: EVQLLESGGGLVQPGGSLRLSCAASGFQFSSYAMNWVRQAPGKGLEWVSRIRSKYNNYATYYADSVKGRFTISRDDSKNTLYLQMNSLRAEDTAVYYCVRHTTFPSSYVSYYGYWGQGTLVTVSSASVAAPSVFIFPPSDEQLKSGTASVVCLLNNFYPREAKVQWKVDNALQSGNSQESVTEQDSKDSTYSLSSTLTLSKADYEKHKVYACEVTHQGLSSPVTKSFNRGEC
